# Measured values: US20160200799A1
# Like-named read-outs stand apart in the source and are kept apart here.
# B1: F083-336 completely humanized IgG antibody (antibody, V domains shown)
# VH: QVQLQQSGAEVKQPGSSVKVSCKASGGIFRSNAISWVRQAPGQGLEWMGGIVALFGTANYAQKFQGRVTITADESTSTVYMELSSLRSEDTARYYCARNSGYHISGFYLDYWGQGTLVTVSS
# VL: EIVLTQSPSSLSASVGDRVTITCRASQGISNYLAWYQQRPGKVPKLLIYTASTLLSGVPSRFSGGGSGTDYTLTISSLQPEDVATYYCQEYKSVPLTFGPGTKVEIK
# How the values were obtained:
# Experiment in all cases: cell-based or functional assay
# [1] = molecular target: Influenza virus A/Okuda/1957 (H2N2) (Influenza A virus A/Okuda/1957 (H2N2))
# [2] = molecular target: Influenza virus A/Suita/1/2009pdm (H1N1 2009 pandemic) (Influenza A virus A/Suita/1/2009pdm (H1N1pdm))
# [3] = molecular target: Influenza virus A/Panama/2007/1999 (H3N2) (Influenza A virus A/Panama/2007/1999 (H3N2))
# [4] = molecular target: Influenza virus A/Brisbane/59/2007 (H1N1) (Influenza A virus A/Brisbane/59/2007 (H1N1))
# [5] = molecular target: Influenza virus A/Indonesia/5/2005/PR8-IBCDC-RG2 (H5N1) (Influenza A virus A/Indonesia/5/2005/PR8-IBCDC-RG2 (H5N1))
# [6] = molecular target: Influenza virus A/Okuda/1957 (H2N2) (Influenza A virus A/Okuda/1957 (H2N2)); remark: listed apart in the source
# [7] = molecular target: Influenza virus A/Suita/1/2009pdm (H1N1 2009 pandemic) (Influenza A virus A/Suita/1/2009pdm (H1N1pdm)); remark: listed apart in the source
# [8] = molecular target: Influenza virus A/Panama/2007/1999 (H3N2) (Influenza A virus A/Panama/2007/1999 (H3N2)); remark: listed apart in the source
# [9] = molecular target: Influenza virus A/Brisbane/59/2007 (H1N1) (Influenza A virus A/Brisbane/59/2007 (H1N1)); remark: listed apart in the source
# [10] = molecular target: Influenza virus A/Indonesia/5/2005/PR8-IBCDC-RG2 (H5N1) (Influenza A virus A/Indonesia/5/2005/PR8-IBCDC-RG2 (H5N1)); remark: listed apart in the source
molecule,measurement,setting,value
F045-092 completely humanized IgG antibody (control anti-HA antibody),Infection inhibition rate (%),[1],0%
same,Infection inhibition rate (%) at 0.024 µg/mL,[1],0%
same,Infection inhibition rate (%) at 0.391 µg/mL,[1],0%
same,Infection inhibition rate (%) at 1.6 µg/mL,[1],0%
same,Infection inhibition rate (%) at 6.3 µg/mL,[1],0%
same,Infection inhibition rate (%) at 25.0 µg/mL,[1],0%
same,Infection inhibition rate (%) at 100.0 µg/mL,[1],15.8%
same,Infection inhibition rate (%) at 200.0 µg/mL,[1],39.4%
same,Infection inhibition rate (%),[2],0%
same,Infection inhibition rate (%) at 0.002 µg/mL,[2],0%
same,Infection inhibition rate (%) at 0.006 µg/mL,[2],0%
same,Infection inhibition rate (%) at 0.024 µg/mL,[2],4.2%
same,Infection inhibition rate (%) at 0.391 µg/mL,[2],4.2%
same,Infection inhibition rate (%) at 1.6 µg/mL,[2],0%
same,Infection inhibition rate (%) at 6.3 µg/mL,[2],6%
same,Infection inhibition rate (%) at 25.0 µg/mL,[2],0%
same,Infection inhibition rate (%) at 100.0 µg/mL,[2],16.1%
same,Infection inhibition rate (%) at 200.0 µg/mL,[2],15.1%
same,Infection inhibition rate (%),[3],0%
same,Infection inhibition rate (%) at 0.391 µg/mL,[3],1.9%
same,Infection inhibition rate (%) at 1.6 µg/mL,[3],31.4%
same,Infection inhibition rate (%) at 6.3 µg/mL,[3],42.9%
same,Infection inhibition rate (%) at 25.0 µg/mL,[3],96.7%
same,Infection inhibition rate (%) at 100.0 µg/mL,[3],99%
same,Infection inhibition rate (%) at 200.0 µg/mL,[3],99.5%
same,Infection inhibition rate (%),[4],0%
same,Infection inhibition rate (%) at 0.002 µg/mL,[4],0%
same,Infection inhibition rate (%) at 0.006 µg/mL,[4],0%
same,Infection inhibition rate (%) at 0.024 µg/mL,[4],0%
same,Infection inhibition rate (%) at 0.391 µg/mL,[4],0%
same,Infection inhibition rate (%) at 1.6 µg/mL,[4],0%
same,Infection inhibition rate (%) at 6.3 µg/mL,[4],5.3%
same,Infection inhibition rate (%) at 25.0 µg/mL,[4],24.4%
same,Infection inhibition rate (%) at 100.0 µg/mL,[4],30.2%
same,Infection inhibition rate (%) at 200.0 µg/mL,[4],58.4%
same,Infection inhibition rate (%) at 0.024 µg/mL,[5],0%
same,Infection inhibition rate (%) at 0.391 µg/mL,[5],0%
same,Infection inhibition rate (%) at 0.98 µg/mL,[5],0%
same,Infection inhibition rate (%) at 1.6 µg/mL,[5],0%
same,Infection inhibition rate (%) at 6.3 µg/mL,[5],0%
same,Infection inhibition rate (%) at 25.0 µg/mL,[5],14.3%
same,Infection inhibition rate (%) at 100.0 µg/mL,[5],28.2%
same,Infection inhibition rate (%) at 200.0 µg/mL,[5],38.6%
B1,Infection inhibition rate (%),[6],2.5%
same,Infection inhibition rate (%) at 0.024 µg/mL,[6],0%
same,Infection inhibition rate (%) at 0.391 µg/mL,[6],19.9%
same,Infection inhibition rate (%) at 1.6 µg/mL,[6],39.8%
same,Infection inhibition rate (%) at 6.3 µg/mL,[6],81.5%
same,Infection inhibition rate (%) at 25.0 µg/mL,[6],86.7%
same,Infection inhibition rate (%) at 100.0 µg/mL,[6],85.9%
same,Infection inhibition rate (%) at 200.0 µg/mL,[6],98.9%
same,Infection inhibition rate (%),[7],30.7%
same,Infection inhibition rate (%) at 0.002 µg/mL,[7],0%
same,Infection inhibition rate (%) at 0.006 µg/mL,[7],13.8%
same,Infection inhibition rate (%) at 0.024 µg/mL,[7],30.7%
same,Infection inhibition rate (%) at 0.391 µg/mL,[7],62.1%
same,Infection inhibition rate (%) at 1.6 µg/mL,[7],93.2%
same,Infection inhibition rate (%) at 6.3 µg/mL,[7],100%
same,Infection inhibition rate (%) at 25.0 µg/mL,[7],100%
same,Infection inhibition rate (%) at 100.0 µg/mL,[7],100%
same,Infection inhibition rate (%) at 200.0 µg/mL,[7],100%
same,Infection inhibition rate (%),[8],2.9%
same,Infection inhibition rate (%) at 0.391 µg/mL,[8],4.8%
same,Infection inhibition rate (%) at 1.6 µg/mL,[8],0%
same,Infection inhibition rate (%) at 6.3 µg/mL,[8],0%
same,Infection inhibition rate (%) at 25.0 µg/mL,[8],0%
same,Infection inhibition rate (%) at 100.0 µg/mL,[8],0%
same,Infection inhibition rate (%) at 200.0 µg/mL,[8],0%
same,Infection inhibition rate (%) at 0.002 µg/mL,[9],2.3%
same,Infection inhibition rate (%) at 0.006 µg/mL,[9],7.3%
same,Infection inhibition rate (%) at 0.024 µg/mL,[9],11.1%
same,Infection inhibition rate (%) at 0.391 µg/mL,[9],42.4%
same,Infection inhibition rate (%) at 0.98 µg/mL,[9],32.4%
same,Infection inhibition rate (%) at 1.6 µg/mL,[9],72.1%
same,Infection inhibition rate (%) at 6.3 µg/mL,[9],90.5%
same,Infection inhibition rate (%) at 25.0 µg/mL,[9],97.3%
same,Infection inhibition rate (%) at 100.0 µg/mL,[9],100%
same,Infection inhibition rate (%) at 200.0 µg/mL,[9],100%
same,Infection inhibition rate (%),[10],1%
same,Infection inhibition rate (%) at 0.024 µg/mL,[10],0%
same,Infection inhibition rate (%) at 0.391 µg/mL,[10],22.1%
same,Infection inhibition rate (%) at 1.6 µg/mL,[10],40.5%
same,Infection inhibition rate (%) at 6.3 µg/mL,[10],66.4%
same,Infection inhibition rate (%) at 25.0 µg/mL,[10],86.7%
same,Infection inhibition rate (%) at 100.0 µg/mL,[10],89.3%
same,Infection inhibition rate (%) at 200.0 µg/mL,[10],98.5%
